From paper PMC10899662, “TopBP1 utilises a bipartite GINS binding mode to support genome replication” (Nature Communications, 2024)
Changes are numbered by the printed parent chain.

B1: TopBP1-BRCT0-5-WT: recombinant TopBP1 amino acids 1–766, strep-tagged (protein)
chain: MSRNDKEPFFVKFLKSSDNSKCFFKALESIKEFQSEEYLQIITEEEALKIKENDRSLYICDPFSGVVFDHLKKLGCRIVGPQVVIFCMHHQRCVPRAEHPVYNMVMSDVTISCTSLEKEKREEVHKYVQMMGGRVYRDLNVSVTHLIAGEVGSKKYLVAANLKKPILLPSWIKTLWEKSQEKKITRYTDINMEDFKCPIFLGCIICVTGLCGLDRKEVQQLTVKHGGQYMGQLKMNECTHLIVQEPKGQKYECAKRWNVHCVTTQWFFDSIEKGFCQDESIYKTEPRPEAKTMPNSSTPTSQINTIDSRTLSDVSNISNINASCVSESICNSLNSKLEPTLENLENLDVSAFQAPEDLLDGCRIYLCGFSGRKLDKLRRLINSGGGVRFNQLNEDVTHVIVGDYDDELKQFWNKSAHRPHVVGAKWLLECFSKGYMLSEEPYIHANYQPVEIPVSHKPESKAALLKKKNSSFSKKDFAPSEKHEQADEDLLSQYENGSSTVVEAKTSEARPFNDSTHAEPLNDSTHISLQEENQSSVSHCVPDVSTITEEGLFSQKSFLVLGFSNENESNIANIIKENAGKIMSLLSRTVADYAVVPLLGCEVEATVGEVVTNTWLVTCIDYQTLFDPKSNPLFTPVPVMTGMTPLEDCVISFSQCAGAEKESLTFLANLLGASVQEYFVRKSNAKKGMFASTHLILKERGGSKYEAAKKWNLPAVTIAWLLETARTGKRADESHFLIENSTKEERSLETEITNGINLNSDTAEHP
modifications: left off: Strep, C-terminal, kept
notes: recombinant TopBP1 amino acids 1–766, strep-tagged
B2: TopBP1-Gpp: TopBP1-BRCT0-5, central leucine-leucine motif mutated to two consecutive prolines (protein)
chain: B1 chain with L490P, L491P
modifications: left off: Strep, C-terminal, kept
notes: TopBP1-BRCT0-5, central leucine-leucine motif mutated to two consecutive prolines
B3: TopBP1-B4mut: Val590, Thr606 and Val610 mutated to glutamate, arginine and glutamate (protein)
chain: B1 chain with V590E, T606R, V610E
modifications: left off: Strep, C-terminal, kept

System: DNA replication in Xenopus egg extracts
Assay: Replication assay in TopBP1-immunodepleted Xenopus egg extract (α-32P-dCTP incorporation)
Format: biochemical, Xenopus laevis
Details: for ability to support replication (words): 6 ng/µl recombinant TopBP1 added to TopBP1-immunodepleted extract, 23 °C
Protocol: Fig. 5 Both GINS binding surfaces in TopBP1 cooperate in supporting genome replication. a Immobilized recombinant Flag-GINS or Flag peptide-coupled beads were used to pulldown the indicated recombinant TopBP1-BRCT0-5-strep versions (Figs. 1a and 3a) using 100 mM NaAc in the binding buffer. The pulldown was analysed by immunoblotting. […] Estimations were done for the binding interfaces involving TopBP1-GINI (blue) and TopBP1-BRCT4 (red), both together and alone. c Coomassie-stained SDS PAGE gel of the indicated recombinant TopBP1-BRCT0-5 proteins (Figs. 1a(ii) and 3a). d The indicated relative amounts (100%–10%) of immunodepleted and non-depleted Xenopus egg extracts (Xtract) were analysed by immunoblotting using anti-TopBP1 #2 and other indicated antibodies. TopBP1 antibodies #1 and #2, or unspecific IgG (mock) were used for immunodepletions. Ponc, ponceau staining. Error bars, SEM, n = 3. The experiments were done more than three times (i) or twice (ii) with similar results. e, f Replication analyses (radioactive nucleotide incorporation) using Xenopus egg extracts immunodepleted with antibodies anti-TopBP1#1, #2 or unspecific IgG (mock). Buffer (buf), recombinant wild-type (WT) or mutant TopBP1-BRCT0-5-strep (c) were added. Diamonds, Individual data points of n = 3 independent experiments, Error bars, SEM. Source data are provided as a Source data file.
Xenopus laevis egg extracts were prepared from metaphase II arrested eggs as described in ref. [79]. After washing with MMR (100 mM NaCl, 2 mM KCl, 1 mM MgCl2, 2 mM CaCl2, 0.1 mM EDTA, 5 mM HEPES–NaOH, pH 7.8) eggs were dejellied (2% cysteine w:v in H2O, pH 7.8 with NaOH). Eggs were rinsed in XBE2 (100 mM KCl, 2 mM MgCl2, 0.1 mM CaCl2, 1.71% w:v sucrose, 5 mM K-EGTA, 10 mM HEPES–KOH, pH 7.7). Then, the eggs were transferred into centrifuge tubes containing 1 ml XBE2 + 10 µg/ml protease inhibitor (aprotinin Sigma A6279, leupeptin Merck 108975, pepstatin Carl Roth 2936.1) + 100 µg/ml cytochalasin D (Sigma C8273). For packing, eggs were centrifuged for 1 min at 1400 × g at 16 °C in a swingout rotor. Excess buffer, activated and apoptotic eggs were removed before crushing the eggs at 16,000 × g for 10 min at 16 °C. The extract was collected with a 20 G needle and supplemented with 10 µg/ml cytochalasin D, 10 µg/ml protease inhibitors, 1:80 dilution of energy regenerator (1M phosphocreatine K salt, 600 µg/ml creatine phosphokinase in 10 mM HEPES–KOH pH 7.6) and LFB1/50 (10% w-v sucrose, 50 mM KCl, 2 mM MgCl2, 1 mM EGTA, 2 mM DTT, 20 mM K2HPO4/KH2PO4 pH 8.0, 40 mM HEPES–KOH, pH 8.0) to 15% (v:v). The extract was cleared at 84,000 × g at 4 °C for 20 min in a swingout rotor. The cytoplasmatic layer was collected and supplemented with 2% glycerol v:v. […]

| Molecule | ability to support replication (words) | reduction in nucleotide incorporation (120 min time point, TopBP1-immunodepleted Xenopus egg extract, 6 ng/µl protein) [%] | ability to support replication (words) (listed as B4mut) |
| --- | --- | --- | --- |
| B1 | effectively rescued replication in depleted extracts |  |  |
| B2 |  | 55 |  |
| B3 | not detectably compromised in their abilities to support replication |  | do not aﬀect grossly the replica+on-inducing |
